Residue numbers refer to the chain shown, from its start. In names and notes the source's numbering stands.
B1: His-tagged wild type PsmA (natural protein, Saccharolobus islandicus REY15A, UniProt C3MQ43 1-241, looked up)
chain: MAFGPAAMGYDRAITIFSPDGSLYQVDYAFEAVKKGWTAIGIKSKSGVVIASEKRKAQSLLDVDSIEKVFLIDDHVGCSFAGLASDGRVLIDYARNIALQHRLIYDEPVSIDYLTKSVADVKQMYTQHGGVRPFGVALVIAGIDKSVPKLYMTEPSGQYMPYQAVAIGQGYYTATEFLEKNYKEDLTIEDTILLALKALSATLKPNEKLTPNTVEIGYASTQTGLFLKMTSEDKNMYLQKL
B2: His-tagged PsmA S200D (natural protein, Saccharolobus islandicus REY15A, UniProt C3MQ43 1-241, looked up)
chain: B1 chain with S200D
B3: His-tagged PsmA T213E (natural protein, Saccharolobus islandicus REY15A, UniProt C3MQ43 1-241, looked up)
chain: B1 chain with T213E

Target: the molecule itself
Test: focused ion beam electron microscopy

Stoichiometry N, 14:
B1
B2
B3

— article doi:10.1101/2025.05.09.653063 (bioRxiv, 2025)
